Measurements as given in article doi:10.1101/2020.10.28.360099 (bioRxiv, 2020).

Tests used:
[1] = target: recombinant jack bean conA precursor (pro-conA) (Canavalia ensiformis (jack bean)); experiment: crystal structure
crystal structure = target: the molecule itself; experiment: crystal structure

Sequence of recombinant jack bean conA precursor (pro-conA) (natural protein) (P02866 30-290): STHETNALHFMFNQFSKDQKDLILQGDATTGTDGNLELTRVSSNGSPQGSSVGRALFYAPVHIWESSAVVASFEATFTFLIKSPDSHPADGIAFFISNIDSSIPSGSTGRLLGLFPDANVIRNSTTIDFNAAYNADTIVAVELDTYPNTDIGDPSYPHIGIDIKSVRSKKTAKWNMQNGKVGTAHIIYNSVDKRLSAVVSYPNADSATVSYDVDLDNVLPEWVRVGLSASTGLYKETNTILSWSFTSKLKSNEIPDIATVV

| Molecule | stoichiometry N [1] | stoichiometry N (crystal structure) |
| --- | --- | --- |
| recombinant jack bean conA precursor (pro-conA) (natural protein) | 2 | – |
| jack bean asparaginyl endopeptidase 1 (CeAEP1) (enzyme, Canavalia ensiformis (jack bean), UniProt P49046 36-475, looked up, succinimide intermediate (SNN) modelled at Asp157) EVGTRWAVLVAGSNGYGNYRHQADVCHAYQLLIKGGVKEENIVVFMYDDIAYNAMNPRPGVIINHPQGPDVYAGVPKDYTGEDVTPENLYAVILGDKSKVKGGSGKVINSNPEDRIFIFYSDHGGPGVLGMPNAPFVYAMDFIDVLKKKHASGGYKEMVIYIEACESGSIFEGIMPKDLNIYVTTASNAQENSFGTYCPGMNPPPPEEYVTCLGDLYSVSWMEDSETHNLKRETVQQQYQSVRKRTSNSNSYRFGSHVMQYGDTNITAEKLYLYHGFDPATVNFPPHNGNLEAKMEVVNQRDAELLFMWQMYQRSNHQPEKKTHILEQITETVKHRNHLDGSVELIGVLLYGPGKSSSVLHSVRAPGLPLVDDWTCLKSMVRVFETHCGSLTQYGMKHMRAFGNVCNSGVSKASMEEACKAACGGYDAGLLYPSNTGYSA | – | 2 |
